The record followed here is publication PMC5647379.

Assay [1] addresses dansylated calmodulin (D-CaM, 5-(dimethylamino)naphtalene-1-sulfonyl-calmodulin) (rat) (UniProt P0DP29). Nature of the assay: other fluorescence titration; D-CaM 12.5 nM in the cuvette, increasing concentrations of GST-fusion protein; no Ca2+ (EGTA 10 mM); Tris-HCl 25 mM pH 7.4, KCl 120 mM, NaCl 5 mM, MgCl2 2 mM; 25 °C; apparent affinity (EC50 of a Hill fit to the fluorescence enhancement).

The target is the same in assay [2]. Nature of the assay: dansyl-CaM fluorescence time course; D-CaM 12.5 nM in a stirred cuvette, emission at 500 nm against time; wt protein (400 nM) added, or one mutant (400 nM) and two minutes later the other mutant (400 nM); also 50 and 100 nM; Fluorescence buffer with or without Ca2+; 25 °C and 37 °C.
For assay [3], the target named is Fluorescent dansylated CaM (D-CaM, 5-(dimethylamino)naphtalene-1-sulfonyl-calmodulin) (rat) (UniProt P0DP29). Nature of the assay: other fluorescence titration; increasing GST-fusion protein added to D-CaM (12.5 nM) in the cuvette; dansyl fluorescence enhancement, Hill fit, apparent affinity (EC50); 25 °C; Fluorescence buffer with 9.63 mM Ca2+ added (3.9 µM free Ca2+).

Assay [4] shares this target. The experiment in a line: other fluorescence titration; increasing GST-fusion protein added to D-CaM (12.5 nM) in the cuvette; dansyl fluorescence enhancement, Hill fit, apparent affinity (EC50); 25 °C; Tris-HCl 25 mM pH 7.4, KCl 120 mM, NaCl 5 mM, MgCl2 2 mM, EGTA 10 mM; without Ca2+.
Assay [5] deals with dansylated calmodulin (D-CaM, 5-(dimethylamino)naphtalene-1-sulfonyl-calmodulin) (rat) (UniProt P0DP29). The experiment in a line: other fluorescence titration; as a2 but with an excess of free Ca2+ (3.9 µM; 9.63 mM Ca2+ added to the Fluorescence buffer); apparent affinity (EC50).
Assay [6] shares this target. Nature of the assay: other fluorescence titration; D-CaM 12.5 nM in the cuvette, increasing concentrations of GST-fusion protein; no Ca2+ (EGTA 10 mM); Tris-HCl 25 mM pH 7.4, KCl 120 mM, NaCl 5 mM, MgCl2 2 mM; 25 °C; apparent affinity (EC50 of a Hill fit to the fluorescence enhancement). The source holds these as a separate data set.
For assay [7], the target named is mTurquoise2-Kv7.2-ABCD (residues 310-653) (human). Nature of the assay: FRET or BRET; equimolar mixtures (500 nM or 2.5 µM each) of purified CFP-ABCD/CaM (donor) and YFP-ABCD/CaM (acceptor) complexes; FRET index followed over time; KCl 120 mM, Hepes 50 mM, NaCl 5 mM, EGTA 5 mM, with or without Ca2+. In general terms: In BRET a luciferase serves as donor, and the signal depends on an acceptor being close.

As usually defined, the EC50 is the concentration giving half of the maximal effect.

On to “ABCD# (equimolar mixture of ABCD-A343D and ABCD-S511D)”, for which the half-maximal effective concentration (EC50) in assay [1] was found to be 45.5 nM. In assay [2], this substance displayed a half-time in the trans-binding assay (400 nM) of 6.5 min; a time to reach the half-maximal D-CaM fluorescence signal (400 nM, 25 °C) of 12 min; a time to reach the half-maximal D-CaM fluorescence signal (400 nM, 37 °C) of 9.2 min.

Regarding “ABCD# (equimolar mixture of GST-ABCD-S511D and GST-ABCD-A343D of Kv7.2)”, in assay [3], the EC50 amounted to 78.5 nM.

As for “ABCD#-L609R (equal mixture of helix A and helix B mutants of ABCD carrying L609R)”, in assay [1], the concentration for a half-maximal effect (EC50) was determined as 120 nM.

For “ABCD#-L609R (equimolar mixture of GST-ABCD-S511D-L609R and GST-ABCD-A343D-L609R of Kv7.2)”, the EC50 in assay [4] was 119 nM; in assay [3] it was 173 nM.

With “GST-Kv7.2 ABCD (helices ABCD fused to GST) (domain or fragment)”, the figures for the half-maximal effective concentration (EC50) in assay [1], in assay [5] and in assay [6] were 9.1 nM, 15.1 nM and 9.2 nM, respectively.

“mCitrine-Kv7.2-ABCD (residues 310-653) (domain or fragment)”: in assay [7], the time to reach half maximal FRET (2.5 µM donor and acceptor) amounted to 6.9 min; the time to reach the half maximal FRET index (500 nM mixture) was found to be 12.2 min.
